Patent publication US5597711A, “Factor VIII binding domain of von Willebrand factor” (The Scripps Research Institute, priority 1995, dated 1997)
Blank lines part the entries; values can stand above or below the molecule they belong to.

Legend:
[1] = biological target: T1, vWF-FVIII complex (Homo sapiens, UniProt P00451); test: Dissociation of FVIII from vWF immobilized on polystyrene beads by washing; format: binding
T1 construct: The purification of FVIII from commercial factor VIII concentrate (Armour Pharmaceutical, Kankakee, IL), by immunoadsorbent chromatography; tissue Armour Pharmaceutical, Kankakee, Ill; host or cells: commercial factor VIII concentrate, both proteins purified in house by immunoadsorbent chromatography
T1 sequence (P00451 1668-2351 limits assumed): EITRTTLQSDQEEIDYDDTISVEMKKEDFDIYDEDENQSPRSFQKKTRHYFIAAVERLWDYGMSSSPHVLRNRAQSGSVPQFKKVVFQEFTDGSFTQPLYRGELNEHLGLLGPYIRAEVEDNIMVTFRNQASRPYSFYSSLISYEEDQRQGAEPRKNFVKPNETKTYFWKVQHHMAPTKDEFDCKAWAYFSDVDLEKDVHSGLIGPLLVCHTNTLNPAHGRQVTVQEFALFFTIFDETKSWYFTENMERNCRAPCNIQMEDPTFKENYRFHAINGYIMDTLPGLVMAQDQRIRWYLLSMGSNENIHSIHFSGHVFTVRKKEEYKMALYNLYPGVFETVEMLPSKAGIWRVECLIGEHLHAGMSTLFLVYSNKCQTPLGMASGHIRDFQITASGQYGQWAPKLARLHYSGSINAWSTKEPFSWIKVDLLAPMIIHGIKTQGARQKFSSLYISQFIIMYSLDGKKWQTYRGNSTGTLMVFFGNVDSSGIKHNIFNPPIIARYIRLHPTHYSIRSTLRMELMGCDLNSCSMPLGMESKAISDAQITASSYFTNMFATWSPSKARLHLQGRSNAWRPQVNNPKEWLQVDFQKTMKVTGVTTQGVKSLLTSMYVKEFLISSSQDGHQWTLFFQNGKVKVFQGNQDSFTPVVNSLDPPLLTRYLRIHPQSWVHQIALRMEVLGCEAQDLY
T1 sequence (P00451 20-759 partner limits assumed): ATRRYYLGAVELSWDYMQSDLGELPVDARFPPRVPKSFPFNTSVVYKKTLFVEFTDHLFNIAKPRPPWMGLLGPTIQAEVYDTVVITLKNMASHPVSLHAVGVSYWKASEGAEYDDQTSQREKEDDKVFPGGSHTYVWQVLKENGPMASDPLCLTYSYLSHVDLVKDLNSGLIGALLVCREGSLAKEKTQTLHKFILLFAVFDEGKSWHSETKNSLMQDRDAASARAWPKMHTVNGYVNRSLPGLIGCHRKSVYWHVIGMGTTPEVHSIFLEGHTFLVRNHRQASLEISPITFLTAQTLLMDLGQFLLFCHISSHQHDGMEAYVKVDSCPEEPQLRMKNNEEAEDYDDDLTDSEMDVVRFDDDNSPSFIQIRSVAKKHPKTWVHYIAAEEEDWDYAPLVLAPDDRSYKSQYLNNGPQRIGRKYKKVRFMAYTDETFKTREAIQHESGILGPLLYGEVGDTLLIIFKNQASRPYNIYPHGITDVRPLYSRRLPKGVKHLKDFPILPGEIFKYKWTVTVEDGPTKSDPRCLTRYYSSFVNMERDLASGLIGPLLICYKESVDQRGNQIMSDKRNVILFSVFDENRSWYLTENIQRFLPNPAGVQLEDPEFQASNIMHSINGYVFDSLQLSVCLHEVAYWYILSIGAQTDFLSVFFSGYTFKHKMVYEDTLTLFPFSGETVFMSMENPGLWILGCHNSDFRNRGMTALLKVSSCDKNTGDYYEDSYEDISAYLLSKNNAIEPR
Protocol: (§1) Competitive inhibition assay of FVIII binding to solid phase vWF: 50 μg of whole unreduced vWF in 1 ml of 0.01M PO4, 0.15M Nacl, 0.02% NaN3, pH 7.3 (PBS), was incubated with three 1/4 inch in diameter polystyrene beads (Pierce Chemical Company, Rockford, Ill.) per 16 mm in diameter tissue culture well for 2 hours at room temperature. The solution was removed and the wells and the beads were then blocked with 1 ml of PBS containing 0.05% Tween-20 and 3% human serum albumin for 1 hour at room temperature. The wells and the beads were stored in the blocking solution at 4° C. for 16 hours to 10 days before use. The wells and beads were then washed ×3 with PBS. 0.05% Tween-20 and incubated for 11/2 hours at room temperature with 1.3 μg of purified FVIII and 0-100 μg of the competitive ligand in 1 ml of 0.05M imidazole, 0.15M Nacl, 0.02% NaN3, pH 7.0, 3 mM CaCl. The beads then were washed ×5 with PBS 0.05% Tween-20 and incubated for 11/2 hour at room temperature with 1.5×10^6 cpm of ^125 I-monoclonal anti-FVIII antibody C2 (specific activity 3.8×10^9 cpm/mg), in 1 ml of PBS 0.05% Tween-20 containing 0.5% bovine gamma globulin. After incubation, the wells and beads were washed with PBS 0.05% Tween-20×2. The beads were then transferred to clean wells and washed an additional four times and separately counted.
54, 1093-1094 (1974), 10-20 mM EDTA according to Tran et al., Thromb. Haemostas. 50, 547-551 (1983) or 1-1.5M Nacl according to Weiss et al., Thromb. Diath. Haemorrh. 27, 212-219 (1972).

[2] = biological target: T2, purified FVIII (Homo sapiens, UniProt P00451); test: Binding of purified FVIII to vWF or SP fragment III immobilized on polystyrene beads; settings: protein adsorbed on polystyrene beads; detected with 125I-labeled monoclonal anti-FVIII antibody
T2 construct: The purification of FVIII from commercial factor VIII concentrate (Armour Pharmaceutical, Kankakee, IL), by immunoadsorbent chromatography; tissue Armour Pharmaceutical, Kankakee, IL; host or cells: commercial factor VIII concentrate, purified in house by immunoadsorbent chromatography
T2 sequence (P00451 1668-2351 limits assumed): T1 sequence (P00451 1668-2351 limits assumed)
T2 sequence (P00451 20-759 partner limits assumed): T1 sequence (P00451 20-759 partner limits assumed)
Protocol: as §1, with “counted. […]” for “counted.”

[3] = biological target: T2, purified FVIII; test: Crossed immunoelectrophoresis: complex formation of vWF or vWF fragments with FVIII; format: binding; settings: co-precipitation of 125I-labeled monoclonal anti-FVIII antibody
Protocol: Two dimensional crossed immunoelectrophoresis of vWF was performed as described in Zimmerman et al., Immunoassays: Clinical Laboratory Techniques for the 1980's, pp. 339-349, Alan R. Liss, Inc., New York (1980), with the following modifications. Agarose was poured in a 1.5 cm strip at the bottom of a 10.2 cm×8.3 cm piece of Gelbond (FMC Corporation, Rockland, Me.). Purified vWF or fragments of vWF, FVIII, and ^125 I labeled monoclonal anti-FVIII antibody were mixed in the sample well and electrophoresed. A second gel containing 125-250 μl of rabbit serum containing polyclonal anti-vWF antibodies was then poured and the second dimension was electrophoresed at right angles to the first dimension. Autoradiographs were made of the gels and compared to Coomassie brilliant blue staining of the gels.

[4] = biological target: T3, FVIII binding to solid phase vWF (Homo sapiens, UniProt P00451); test: Competitive inhibition assay of FVIII binding to solid phase vWF; settings: competitive ligand in fluid phase, 0-100 μg in 1 ml
T3 construct: The purification of FVIII from commercial factor VIII concentrate (Armour Pharmaceutical, Kankakee, IL), by immunoadsorbent chromatography; tissue Armour Pharmaceutical, Kankakee, Ill; host or cells: commercial factor VIII concentrate, both proteins purified in house by immunoadsorbent chromatography
T3 sequence (P00451 1668-2351 limits assumed): T1 sequence (P00451 1668-2351 limits assumed)
T3 sequence (P00451 20-759 partner limits assumed): T1 sequence (P00451 20-759 partner limits assumed)
Protocol: as §1, with “counted. […]” for “counted.”

binding of purified FVIII to the immobilized protein [2]: bound
complex formation with FVIII [3]: demonstrated complex formation
inhibition of FVIII binding to immobilized vWF (in words) [4]: completely inhibit
Molecule: vWF: purified von Willebrand factor from commercial factor VIII concentrate

complex formation with FVIII [3]: unable to bind FVIII
inhibition of FVIII binding to immobilized vWF (in words) [4]: no inhibitory effect
Molecule: Reduced and alkylated vWF: vWF after reduction and alkylation

Further lines, the molecule ahead of its results:

Molecule: [Ca+2].[Cl-].[Cl-] [CaCl2]
dissociation of FVIII from vWF ([1]; five washings with imidazole buffered saline containing 3 mM CaCl2): no FVIII dissociation
dissociation of FVIII from vWF ([1]; five washings with imidazole buffered saline containing 0.25M CaCl2 at 37° C.): 70 ±4%

Molecule: O=C(O)CN(CCN(CC(=O)O)CC(=O)O)CC(=O)O [EDTA]
dissociation of FVIII from vWF ([1]; five washings with imidazole buffered saline containing 20 mM EDTA): 66 ±5%

Molecule: [Cl-].[Na+] [Nacl]
dissociation of FVIII from vWF ([1]; five washings with imidazole buffer containing 1.5M Nacl): 86 ±1%
